This note sets out measurements from PMC2818592.

Data set [1] addresses T1, PDGF-BB (platelet-derived growth factor B-chain homodimer) (UniProt P01127 82-190). Nature of the data set: microbead sandwich assay without RCA.
Data set [2] concerns the target T1, PDGF-BB (platelet-derived growth factor …). Kind of data set: optical diffraction sandwich assay with RCA and microbeads.

T1 sequence (P01127 82-190): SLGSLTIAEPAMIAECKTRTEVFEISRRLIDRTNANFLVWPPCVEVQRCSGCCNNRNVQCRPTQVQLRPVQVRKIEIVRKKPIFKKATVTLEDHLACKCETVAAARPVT

Consider TACTCAGGGCACTGCAAGCAATTGTGGTCCCAATGGGCTGAGTATTTTTT (structured_DNA) [capture aptamer (anti-PDGF-BB)], for which, in data set [1], the binding result is “binds”.

B1: aptamer-primer complex (anti-PDGF-BB aptamer with 3' RCA primer) (structured_DNA)
DNA: TACTCAGGGCACTGCAAGCAATTGTGGTCCCAATGGGCTGAGTATTTTTTTTGTCCGTGCTAGAAGGAAACAGTTAC
As to B1, the binding result in data set [2] is “binds”.
